# Measurements published in patent publication US20100047232A1 (Genentech, published 2010).
# T1: Nogo Receptor (hit from the human cDNA library) (human, UniProt Q9BZR6 27-447)
# T1 construct: whole, on cells; also called NgR; NgR1
# T1 sequence (looked up): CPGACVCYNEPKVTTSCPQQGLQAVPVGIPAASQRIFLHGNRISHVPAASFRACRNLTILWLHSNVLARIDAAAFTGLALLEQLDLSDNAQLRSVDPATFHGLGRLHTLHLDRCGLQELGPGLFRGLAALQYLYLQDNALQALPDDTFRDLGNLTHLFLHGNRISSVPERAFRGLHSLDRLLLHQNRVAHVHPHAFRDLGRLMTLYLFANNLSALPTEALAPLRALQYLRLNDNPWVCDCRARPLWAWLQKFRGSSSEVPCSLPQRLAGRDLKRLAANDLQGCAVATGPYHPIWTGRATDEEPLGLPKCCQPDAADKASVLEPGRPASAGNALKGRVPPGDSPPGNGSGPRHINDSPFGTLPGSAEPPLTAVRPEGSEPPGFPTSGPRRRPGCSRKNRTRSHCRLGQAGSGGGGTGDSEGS
# B1: PirB (paired-immunoglobulin-like receptor B), mouse (receptor)
# chain: SLPKPILRVQPDSVVSRWTKVTFFCEETIGANEYRLYKDGKLYKTVTKNKQKPANKAEFSLSNVDLRNAGQYRCSYSTQYKSSGYSDPLELVVTGDYWTPSLLAQASPVVTSGGYVTLQCESWHNDHKFILTVEGPQKLSWTQDSQYNYSTRKYHALFSVGPVTPNQRWICRCYSYDRNRPYVWSPPSESVELLVSGNLQKPTIKAEPGPVIASKRAMTIWCQGNLDAEVYFLHNEGSQKTQSTQTLQQPGNKGKFFIPSMTRQHAGQYRCYCYGSAGWSQPSDTLELVVTGIYEHYKPRLSVLPSPVVTAGGNMTLHCASDFHYDKFILTKEDKKFGNSLDTEHISSSRQYRALFIIGPTTPTHTGTFRCYGYFKNAPQLWSVPSDLQQILISGLSKKPSLLTHQGHILDPGMTLTLQCYSDINYDRFALHKVGGADIMQHSSQQTDTGFSVANFTLGYVSSSTGGQYRCYGAHNLSSEWSASSEPLDILITGQLPLTPSLSVKPNHTVHSGETVSLLCWSMDSVDTFILSKEGSAQQPLRLKSKSHDQQSQAEFSMSAVTSHLSGTYRCYGAQNSSFYLLSSASAPVELTVSGPIETSTPPPTMSMPLGGLHMYLKALIGVSVAFILFLFILIFILLRRRHRGKFRKDVQKEKDLQLSSGAEEPITRKGELQKRPNPAAATQEESLYASVEDMQTEDGVELNSWTPPEEDPQGETYAQVKPSRLRKAGHVSPSVMSREQLNTEYEQAEEGQGANNQAAESGESQDVTYAQLCSRTLRQGAAASPLSQAGEAPEEPSVYATLAAARPEAVPKDVEQ
# notes: Expressed from cDNA in transfected COS7 cells; also called murine orthologue PirB
# B2: LILRB2, transcript variant 1 (leukocyte immunoglobulin-like receptor, subfamily B, member 2) (receptor)
# chain: QTGTIPKPTLWAEPDSVITQGSPVTLSCQGSLEAQEYRLYREKKSASWITRIRPELVKNGQFHIPSITWEHTGRYGCQYYSRARWSELSDPLVLVMTGAYPKPTLSAQPSPVVTSGGRVTLQCESQVAFGGFILCKEGEDEHPQCLNSQPHARGSSRAIFSVGPVSPNRRWSHRCYGYDLNSPYVWSSPSDLLELLVPGVSKKPSLSVQPGPVVAPGESLTLQCVSDVGYDRFVLYKEGERDLRQLPGRQPQAGLSQANFTLGPVSRSYGGQYRCYGAYNLSSEWSAPSDPLDILITGQIHGTPFISVQPGPTVASGENVTLLCQSWRQFHTFLLTKAGAADAPLRLRSIHEYPKYQAEFPMSPVTSAHAGTYRCYGSLNSDPYLLSHPSEPLELVVSGPSMGSSPPPTGPISTPAGPEDQPLTPTGSDPQSGLGRHLGVVIGILVAVVLLLLLLLLLFLILRHRRQGKHWTSTQRKADFQHPAGAVGPEPTDRGLQWRSSPAADAQEENLYAAVKDTQPEDGVEMDTRAAASEAPQDVTYAQLHSLTLRRKATEPPPSQEREPPAEPSIYATLAIH
# notes: Expressed from full-length human cDNA in transfected COS7 cells; also called LIRB2; MIG10
# B3: AP-Nogo66 (ligand, human, UniProt Q9NQC3 1055-1120, looked up)
# chain: RIYKGVIQAIQKSDEGHPFRAYLESEVAISEELVQKYSNSALGHVNCTIKELRRLFLVDDLVDSLK
# notes: also called AO-Nogo66; not shown: FLAG tag at the N-terminus; human placental alkaline phosphatase (AP)
# Columns and labels:
# AP-Nogo66 [1] = target: B3; test: AP activity on transfected COS cells after incubation with AP-Nogo66
# Protocol: In particular, on Day 1, COS7 cells were plated at a density of 85,000 cells per well in 12-well plates. On Day 2, 1 mg of pooled cDNA's were transfected per well using the lipid-based transfection reagent FuGENE 6 (Roche). On Day 4, screening was performed. Briefly, culture medium was removed from cells and replaced with 0.5 ml of 293 cell-conditioned medium containing AP-fusion bait proteins (20-50 nM). Cells were incubated at room temperature for 90 minutes. The cells were then washed 3 times with phosphate-buffered saline (PBS), fixed for 7 minutes with 4% paraformaldehyde, washed 3 times in HEPES-buffered saline (HBS), and heat inactivated at 65° C. for 90 minutes to destroy endogenous AP activity. The cells were washed once in AP Buffer (100 mM NaCl, 5 mM MgCl₂, 100 mM Tris pH 9.5), and incubated in chromogenic substrate (Western Blue, Promega), and analyzed for presence of reaction product one hour after incubation, and again after overnight incubation. Positive cells were identified by the presence of dark blue precipitate over the surface of the membrane. Positive pools were further broken down to identify individual positive clones by subsequent rounds of screening.
# To confirm Nogo66 binding to LILRB2 (SEQ ID NO: 2), and to test if Nogo66 binds to the murine orthologue PirB (SEQ ID NO: 1), binding assays similar to those described in Example 1 were carried out. […]
# AP-Nogo66 [2] = target: B3; test: expression cloning, AP-fusion bait (20-50 nM) on COS7 cells transfected with human cDNA pools
# From the text: (§1) To identify novel receptors for inhibitory myelin proteins, an expression cloning approach was taken. As bait, constructs were generated that fused Alkaline Phosphatase (AP) to the N- and/or C-terminus of the following characterized myelin inhibitors (human cDNA used): Nogo66, two additional inhibitory domains of NogoA (NiRD2 and NiG20) (Oertle T, J. Neurosci. 2003, 23(13): 5393-406), MAG, and OMgp. These constructs were transfected into 293 cells to produce conditioned medium (in DMEM/2% FBS) containing the bait proteins. The cDNA library used in the screen was comprised of full-length human cDNA clones in expression-ready vectors generated by Origene. These cDNAs were compiled, arrayed, and pooled. Pools of approximately 100 cDNA's were transiently transfected into COS7 cells.
# (§2) In particular, on Day 1, COS7 cells were plated at a density of 85,000 cells per well in 12-well plates. On Day 2, 1 mg of pooled cDNA's were transfected per well using the lipid-based transfection reagent FuGENE 6 (Roche). On Day 4, screening was performed. […] The cells were washed once in AP Buffer (100 mM NaCl, 5 mM MgCl₂, 100 mM Tris pH 9.5), and incubated in chromogenic substrate (Western Blue, Promega), and analyzed for presence of reaction product one hour after incubation, and again after overnight incubation. […]
# [3] = target: T1, Nogo Receptor (hit from the human cDNA …); test: as above
# From the text: as §1, §2
binder,measurement,setting,value
B1,binding result,AP-Nogo66 [1],binds
B2,binding result,AP-Nogo66 [2],binds
B3,binding result,[3],binds
